First the molecules themselves.
B1: High mobility group protein B1 (Rattus norvegicus (Rat)), P63159 (parent)
chain: MGKGDPKKPRGKMSSYAFFVQTCREEHKKKHPDASVNFSEFSKKCSERWKTMSAKEKGKFEDMAKADKARYEREMKTYIPPKGETKKKFKDPNAPKRPPSAFFLFCSEYRPKIKGEHPGLSIGDVAKKLGEMWNNTAADDKQPYEKKAAKLKEKYEKDIAAYRAKGKPDAAKKGVVKAEKSKKKKEEEDDEEDEEDEEEEEEEEDEDEEEDDDDE

This is an account of results in IntAct's records for PubMed 20819940.

This assay covers variants of B1. As to conditions: with becn1_mouse Becn1, O88597.
Sequence of becn1_mouse Becn1, O88597 (O88597 whole entry): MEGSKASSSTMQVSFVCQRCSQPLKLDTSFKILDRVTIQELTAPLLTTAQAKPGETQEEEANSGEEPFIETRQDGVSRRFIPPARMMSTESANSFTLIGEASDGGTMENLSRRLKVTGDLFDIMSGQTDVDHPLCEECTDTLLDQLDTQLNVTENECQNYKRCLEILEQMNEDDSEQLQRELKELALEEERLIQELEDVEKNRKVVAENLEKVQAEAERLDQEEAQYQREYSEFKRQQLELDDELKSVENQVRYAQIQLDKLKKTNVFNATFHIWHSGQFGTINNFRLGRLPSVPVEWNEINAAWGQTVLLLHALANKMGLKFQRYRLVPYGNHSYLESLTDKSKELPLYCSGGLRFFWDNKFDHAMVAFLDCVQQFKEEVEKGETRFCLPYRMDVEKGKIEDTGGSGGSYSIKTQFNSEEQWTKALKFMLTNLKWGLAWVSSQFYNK
C23S: the “effect of a mutation on the interaction” value is “disrupting interaction”.

On to C45S, for which the “effect of a mutation on the interaction” value was “disrupting interaction”.
